Patent publication US20240174727A1, “LONG-ACTING NATRIURETIC PEPTIDES AND USES THEREOF” (Eli Lilly and Company, priority 2022, published 2024)
Numbered stars: 1 amine (or outer) side, 2 acyl side, 3 side chain; on linkers, the order of the positions; unused ones are H or OH. Bridge positions count the residues as written; N and C are the ends. Square brackets hold non-standard residues; d marks the D form. * marks the point of attachment. C20 diacid = O=C(O)CCCCCCCCCCCCCCCCCCC(=O)*; γGlu = O=C(O)[C@H](CCC(=O)[*:2])N[*:1]; 4Pal = N[C@@H](Cc1ccncc1)C(=O)O

T1: rat NPRA (rat, UniProt P18910 29-1057)
T1 sequence (looked up): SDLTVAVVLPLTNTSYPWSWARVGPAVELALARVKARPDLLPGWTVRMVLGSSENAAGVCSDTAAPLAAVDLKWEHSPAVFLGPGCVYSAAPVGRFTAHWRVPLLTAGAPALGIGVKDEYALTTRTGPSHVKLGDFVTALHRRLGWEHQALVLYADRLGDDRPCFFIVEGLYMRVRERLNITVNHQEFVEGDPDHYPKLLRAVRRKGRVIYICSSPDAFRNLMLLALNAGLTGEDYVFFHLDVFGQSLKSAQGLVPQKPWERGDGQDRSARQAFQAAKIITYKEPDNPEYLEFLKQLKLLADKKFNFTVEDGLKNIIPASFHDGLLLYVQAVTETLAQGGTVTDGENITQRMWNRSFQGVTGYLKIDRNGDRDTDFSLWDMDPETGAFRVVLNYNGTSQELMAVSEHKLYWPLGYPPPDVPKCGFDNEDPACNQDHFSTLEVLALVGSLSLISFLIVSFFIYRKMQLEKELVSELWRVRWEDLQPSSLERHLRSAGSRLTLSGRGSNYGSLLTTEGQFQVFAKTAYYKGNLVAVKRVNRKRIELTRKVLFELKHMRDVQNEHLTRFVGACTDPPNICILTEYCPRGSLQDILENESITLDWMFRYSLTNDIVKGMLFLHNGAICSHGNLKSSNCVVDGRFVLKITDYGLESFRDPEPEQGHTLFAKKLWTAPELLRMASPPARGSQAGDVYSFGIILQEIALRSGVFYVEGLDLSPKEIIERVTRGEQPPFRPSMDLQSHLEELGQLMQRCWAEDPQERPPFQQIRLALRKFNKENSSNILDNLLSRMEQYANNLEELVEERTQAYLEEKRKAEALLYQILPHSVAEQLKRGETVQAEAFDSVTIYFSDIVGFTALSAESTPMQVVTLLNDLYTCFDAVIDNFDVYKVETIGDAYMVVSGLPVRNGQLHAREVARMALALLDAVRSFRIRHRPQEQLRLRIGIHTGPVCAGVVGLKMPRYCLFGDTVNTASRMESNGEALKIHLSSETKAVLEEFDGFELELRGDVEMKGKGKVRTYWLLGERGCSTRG

T2: human NPRA (human, UniProt P16066 33-1061)
T2 sequence (looked up): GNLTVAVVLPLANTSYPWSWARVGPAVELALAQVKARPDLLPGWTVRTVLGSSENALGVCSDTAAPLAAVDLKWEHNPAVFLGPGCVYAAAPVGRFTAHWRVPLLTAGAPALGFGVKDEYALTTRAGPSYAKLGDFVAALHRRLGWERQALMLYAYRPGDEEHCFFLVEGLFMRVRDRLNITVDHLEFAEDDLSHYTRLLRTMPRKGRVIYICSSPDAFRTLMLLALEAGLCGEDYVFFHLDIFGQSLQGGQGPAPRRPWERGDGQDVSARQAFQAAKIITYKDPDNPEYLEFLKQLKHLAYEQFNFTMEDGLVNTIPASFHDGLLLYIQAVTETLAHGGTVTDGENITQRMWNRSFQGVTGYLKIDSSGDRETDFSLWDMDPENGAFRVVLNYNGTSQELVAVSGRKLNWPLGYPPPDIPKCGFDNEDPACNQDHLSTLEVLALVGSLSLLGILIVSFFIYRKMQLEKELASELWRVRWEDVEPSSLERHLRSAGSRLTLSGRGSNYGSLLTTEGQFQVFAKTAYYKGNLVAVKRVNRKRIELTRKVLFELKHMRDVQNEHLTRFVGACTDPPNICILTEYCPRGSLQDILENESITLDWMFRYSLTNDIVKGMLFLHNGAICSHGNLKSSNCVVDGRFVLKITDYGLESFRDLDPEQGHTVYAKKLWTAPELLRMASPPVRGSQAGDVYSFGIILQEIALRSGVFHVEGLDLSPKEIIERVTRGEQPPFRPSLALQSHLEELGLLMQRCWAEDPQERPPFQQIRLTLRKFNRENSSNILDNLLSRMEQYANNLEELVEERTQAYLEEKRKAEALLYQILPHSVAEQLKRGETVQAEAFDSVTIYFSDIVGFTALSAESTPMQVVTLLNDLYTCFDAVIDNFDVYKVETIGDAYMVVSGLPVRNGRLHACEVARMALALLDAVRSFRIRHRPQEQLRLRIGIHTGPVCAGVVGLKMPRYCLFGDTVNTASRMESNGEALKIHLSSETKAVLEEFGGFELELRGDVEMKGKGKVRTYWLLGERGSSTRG

T3: rat NPRA (rat, UniProt P18910 29-1057)
T3 sequence (looked up): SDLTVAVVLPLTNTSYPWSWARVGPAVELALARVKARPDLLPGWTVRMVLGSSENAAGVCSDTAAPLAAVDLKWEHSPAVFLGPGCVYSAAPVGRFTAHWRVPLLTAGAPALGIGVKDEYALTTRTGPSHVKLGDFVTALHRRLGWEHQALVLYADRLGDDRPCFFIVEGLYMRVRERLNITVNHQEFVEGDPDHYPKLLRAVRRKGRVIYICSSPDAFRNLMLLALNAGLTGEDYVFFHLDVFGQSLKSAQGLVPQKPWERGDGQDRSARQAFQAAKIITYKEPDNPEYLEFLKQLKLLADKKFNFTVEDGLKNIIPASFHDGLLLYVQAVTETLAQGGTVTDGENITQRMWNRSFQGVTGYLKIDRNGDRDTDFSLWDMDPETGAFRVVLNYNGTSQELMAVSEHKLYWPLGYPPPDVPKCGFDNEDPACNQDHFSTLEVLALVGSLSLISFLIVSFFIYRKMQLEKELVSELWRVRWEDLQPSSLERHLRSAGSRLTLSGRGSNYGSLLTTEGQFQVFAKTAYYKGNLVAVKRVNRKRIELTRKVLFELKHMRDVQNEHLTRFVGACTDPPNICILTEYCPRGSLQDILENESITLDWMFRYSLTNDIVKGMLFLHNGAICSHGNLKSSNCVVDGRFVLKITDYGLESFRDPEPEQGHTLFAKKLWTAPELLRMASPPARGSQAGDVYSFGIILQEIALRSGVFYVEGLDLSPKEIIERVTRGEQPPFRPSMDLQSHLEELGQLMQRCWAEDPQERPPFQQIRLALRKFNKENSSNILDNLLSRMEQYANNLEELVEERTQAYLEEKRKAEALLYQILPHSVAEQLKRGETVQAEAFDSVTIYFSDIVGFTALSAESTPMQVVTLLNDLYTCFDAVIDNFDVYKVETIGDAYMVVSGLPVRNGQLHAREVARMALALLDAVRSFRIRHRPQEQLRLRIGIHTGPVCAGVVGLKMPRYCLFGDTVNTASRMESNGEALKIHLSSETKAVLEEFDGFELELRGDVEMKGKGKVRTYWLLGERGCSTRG


Experiments:
Assay in all cases: cell-based or functional assay
rat NPRA [1] = target: T1, rat NPRA
human NPRA = target: T2, human NPRA
rat NPRA [2] = target: T3, rat NPRA; remark: listed apart in the source

Binder	cGMP Assay (EC50, pM) w/Casein, rNPRA (rat NPRA [1])	cGMP Assay (EC50, pM) w/BSA (human NPRA)	cGMP Assay (EC50, pM) w/Casein (human NPRA)	cGMP Assay (EC50, pM) w/BSA (rat NPRA [2])	cGMP Assay (EC50, pM) w/Casein (rat NPRA [2])
XEKEKEKGEKPRSSCFGKRIDRIGXQSGLGCPSFRHGSPSSGAPPPS (N-terminus acylated with HOOC-(CH2)18-CO-(γGlu)-; Orn; thioacetal linkage between the two bracketed Cys; C-terminal amide) [HOOC-(CH2)18-CO-(γGlu)-EKEKEKGEKPRSS[CFGKRIDRIG-Orn-QSGLGC]PSFRHGSPSSGAPPPS-NH2]	192000 pM				
{C20 diacid}-[γGlu]EKEKEKGS[4Pal]RRSSCFGGRIDRIGAQSGLGCNSFR[4Pal]-NH2 (disulfide 15-31; SMILES CC[C@H](C)[C@@H]1NC(=O)[C@H](CCCNC(=N)N)NC(=O)[C@H](CC(=O)O)NC(=O)[C@H]([C@@H](C)CC)NC(=O)[C@H](CCCNC(=N)N)NC(=O)CNC(=O)CNC(=O)[C@H](Cc2ccccc2)NC(=O)[C@@H](NC(=O)[C@H](CO)NC(=O)[C@H](CO)NC(=O)[C@H](CCCNC(=N)N)NC(=O)[C@H](CCCNC(=N)N)NC(=O)[C@H](Cc2ccncc2)NC(=O)[C@H](CO)NC(=O)CNC(=O)[C@H](CCCCN)NC(=O)[C@H](CCC(=O)O)NC(=O)[C@H](CCCCN)NC(=O)[C@H](CCC(=O)O)NC(=O)[C@H](CCCCN)NC(=O)[C@H](CCC(=O)O)NC(=O)CC[C@H](NC(=O)CCCCCCCCCCCCCCCCCCC(=O)O)C(=O)O)CSSC[C@@H](C(=O)N[C@@H](CC(N)=O)C(=O)N[C@@H](CO)C(=O)N[C@@H](Cc2ccccc2)C(=O)N[C@@H](CCCNC(=N)N)C(=O)N[C@@H](Cc2ccncc2)C(N)=O)NC(=O)CNC(=O)[C@H](CC(C)C)NC(=O)CNC(=O)[C@H](CO)NC(=O)[C@H](CCC(N)=O)NC(=O)[C@H](C)NC(=O)CNC1=O) [Example 15]		57300 pM	912 pM	32600 pM	254 pM
{C20 diacid}-[γGlu]EKEKEKGSHRRSSCFHGRIDRIHAQSGLGCNSFRH-NH2 (disulfide 15-31; SMILES CC[C@H](C)[C@@H]1NC(=O)[C@H](CCCNC(=N)N)NC(=O)[C@H](CC(=O)O)NC(=O)[C@H]([C@@H](C)CC)NC(=O)[C@H](CCCNC(=N)N)NC(=O)CNC(=O)[C@H](Cc2c[nH]cn2)NC(=O)[C@H](Cc2ccccc2)NC(=O)[C@@H](NC(=O)[C@H](CO)NC(=O)[C@H](CO)NC(=O)[C@H](CCCNC(=N)N)NC(=O)[C@H](CCCNC(=N)N)NC(=O)[C@H](Cc2c[nH]cn2)NC(=O)[C@H](CO)NC(=O)CNC(=O)[C@H](CCCCN)NC(=O)[C@H](CCC(=O)O)NC(=O)[C@H](CCCCN)NC(=O)[C@H](CCC(=O)O)NC(=O)[C@H](CCCCN)NC(=O)[C@H](CCC(=O)O)NC(=O)CC[C@H](NC(=O)CCCCCCCCCCCCCCCCCCC(=O)O)C(=O)O)CSSC[C@@H](C(=O)N[C@@H](CC(N)=O)C(=O)N[C@@H](CO)C(=O)N[C@@H](Cc2ccccc2)C(=O)N[C@@H](CCCNC(=N)N)C(=O)N[C@@H](Cc2c[nH]cn2)C(N)=O)NC(=O)CNC(=O)[C@H](CC(C)C)NC(=O)CNC(=O)[C@H](CO)NC(=O)[C@H](CCC(N)=O)NC(=O)[C@H](C)NC(=O)[C@H](Cc2c[nH]cn2)NC1=O) [Example 16]		54700 pM	807 pM	480000 pM	4070 pM
{C20 diacid}-[γGlu]EKEKEKGSHRRSSCFGGRIDRIGAQSGLGCPSFRH-NH2 (disulfide 15-31; SMILES CC[C@H](C)[C@@H]1NC(=O)[C@H](CCCNC(=N)N)NC(=O)[C@H](CC(=O)O)NC(=O)[C@H]([C@@H](C)CC)NC(=O)[C@H](CCCNC(=N)N)NC(=O)CNC(=O)CNC(=O)[C@H](Cc2ccccc2)NC(=O)[C@@H](NC(=O)[C@H](CO)NC(=O)[C@H](CO)NC(=O)[C@H](CCCNC(=N)N)NC(=O)[C@H](CCCNC(=N)N)NC(=O)[C@H](Cc2c[nH]cn2)NC(=O)[C@H](CO)NC(=O)CNC(=O)[C@H](CCCCN)NC(=O)[C@H](CCC(=O)O)NC(=O)[C@H](CCCCN)NC(=O)[C@H](CCC(=O)O)NC(=O)[C@H](CCCCN)NC(=O)[C@H](CCC(=O)O)NC(=O)CC[C@H](NC(=O)CCCCCCCCCCCCCCCCCCC(=O)O)C(=O)O)CSSC[C@@H](C(=O)N2CCC[C@H]2C(=O)N[C@@H](CO)C(=O)N[C@@H](Cc2ccccc2)C(=O)N[C@@H](CCCNC(=N)N)C(=O)N[C@@H](Cc2c[nH]cn2)C(N)=O)NC(=O)CNC(=O)[C@H](CC(C)C)NC(=O)CNC(=O)[C@H](CO)NC(=O)[C@H](CCC(N)=O)NC(=O)[C@H](C)NC(=O)CNC1=O) [Example 18]		17100 pM	460 pM	43200 pM	693 pM
{C20 diacid}-[γGlu]EKEKEKGS[4Pal]RRSSCFGGRIDRIGAQSGLGCPSFR[4Pal]-NH2 (disulfide 15-31; SMILES CC[C@H](C)[C@@H]1NC(=O)[C@H](CCCNC(=N)N)NC(=O)[C@H](CC(=O)O)NC(=O)[C@H]([C@@H](C)CC)NC(=O)[C@H](CCCNC(=N)N)NC(=O)CNC(=O)CNC(=O)[C@H](Cc2ccccc2)NC(=O)[C@@H](NC(=O)[C@H](CO)NC(=O)[C@H](CO)NC(=O)[C@H](CCCNC(=N)N)NC(=O)[C@H](CCCNC(=N)N)NC(=O)[C@H](Cc2ccncc2)NC(=O)[C@H](CO)NC(=O)CNC(=O)[C@H](CCCCN)NC(=O)[C@H](CCC(=O)O)NC(=O)[C@H](CCCCN)NC(=O)[C@H](CCC(=O)O)NC(=O)[C@H](CCCCN)NC(=O)[C@H](CCC(=O)O)NC(=O)CC[C@H](NC(=O)CCCCCCCCCCCCCCCCCCC(=O)O)C(=O)O)CSSC[C@@H](C(=O)N2CCC[C@H]2C(=O)N[C@@H](CO)C(=O)N[C@@H](Cc2ccccc2)C(=O)N[C@@H](CCCNC(=N)N)C(=O)N[C@@H](Cc2ccncc2)C(N)=O)NC(=O)CNC(=O)[C@H](CC(C)C)NC(=O)CNC(=O)[C@H](CO)NC(=O)[C@H](CCC(N)=O)NC(=O)[C@H](C)NC(=O)CNC1=O) [Example 20]		129000 pM	2900 pM	104000 pM	1390 pM
